The results in this text go back to paper PMC4613514.

For this test, the target named is Keap1–mCherry (Kelch-like ECH associated protein 1 fused to mCherry) (UniProt Q9Z2X8). The test is described as follows: FRET or BRET. For orientation: BRET reads energy transfer from a luciferase to a nearby fluorophore.
Sequence of UniProt Q9Z2X8 (Q9Z2X8 whole entry, the tested form may be a part): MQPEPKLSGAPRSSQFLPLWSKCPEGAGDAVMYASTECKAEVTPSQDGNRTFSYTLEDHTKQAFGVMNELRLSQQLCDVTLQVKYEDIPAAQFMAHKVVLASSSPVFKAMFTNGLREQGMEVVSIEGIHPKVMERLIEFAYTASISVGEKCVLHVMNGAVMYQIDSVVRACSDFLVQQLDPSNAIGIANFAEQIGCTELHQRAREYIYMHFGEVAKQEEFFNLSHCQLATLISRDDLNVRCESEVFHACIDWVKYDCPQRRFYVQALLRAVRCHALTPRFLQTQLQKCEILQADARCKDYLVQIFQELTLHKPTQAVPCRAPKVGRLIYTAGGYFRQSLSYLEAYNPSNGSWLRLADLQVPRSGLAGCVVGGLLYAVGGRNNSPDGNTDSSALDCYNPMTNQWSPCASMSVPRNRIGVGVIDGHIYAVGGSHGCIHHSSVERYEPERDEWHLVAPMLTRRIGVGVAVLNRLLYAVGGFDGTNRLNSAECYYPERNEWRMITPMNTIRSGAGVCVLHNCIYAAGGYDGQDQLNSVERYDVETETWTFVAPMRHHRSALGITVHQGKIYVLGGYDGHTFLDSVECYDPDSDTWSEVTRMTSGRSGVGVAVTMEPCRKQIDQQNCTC

Regarding “EGFP–Nrf2 double ETGE (from UniProt Q60795 1-597) (natural protein)”, the E-FRET (major peak) was 21%.

“EGFP–Nrf2ΔDLG (from UniProt Q60795 1-597) (natural protein)” came in with an E-FRET (major peak) of 13%.
